This is an account of results in patent US11892449B2, “Therapeutics and point of care lateral-flow test for virus and antibodies using tagged assembled proteins” (priority 2021, dated 2024).

The target of test [1] is p300. Briefly: ELISA binding to p300, total binding kinetics. The following applies: for Kd: ELISA, average of three independent trials. The text has this: FIG. 21. H-MAP1 (H-MAP) and H-MAP2 ELISA fitted with total binding kinetics using Prism 7 (GraphPad) with calculated binding affinities as an average of three independent trials.
In general terms: An ELISA detects its analyte on a solid surface through an enzyme-linked reagent.

Test [2] deals with HIF1α. Briefly: Hypoxia-inducible luciferase reporter in MDA-MB-231 cells. Format: cell-based. The settings on record: MDA-MB-231-Luciferase cells, hypoxia induced with 100 μM CoCl2, increasing concentrations. The text has this:
FIG. 22. […] Results are normalized to maximum luciferase intensity of two independent trials.
We will further characterize the HIF1α-MAP1 and iterative HIF1α-MAP designs as described in the following section. For example, to increase the likelihood of translocation to the nucleus, HIF1α-MAP-2 (H-MAP-2) was designed by addition of nuclear localization sequence, PKKKRKV (SEQ ID NO:7), at the N-terminus. […] To test the ability of HIF1α-MAPs to modulate hypoxia-inducible signaling, HIF1α-MAP-2 was incubated with triple negative breast cancer cell line, MDA-MB-231, stably transfected a construct to express firefly luciferase under normoxic and hypoxic (induced with final concentration 100 μM CoCl2) conditions.

Regarding native HIF1α [reference compound], in test [1], the Kd worked out at 0.38 nM.

B1: HIF1α-MAP-1 (protein)
chain: MRGSHHHHHHGSACELAATATATATATATAACGDLAPQMLRELQETNAALQDVRELLRQQVKEITFLKNTLLEIWKAAKEAAKEAAAKIEEQAKTFLDKFNGEELLRALDQVN
Take B1: the Kd in test [1] stood at 0.00808 nM. Further, the “fold improvement in comparison to native HIF1α” value in test [1] (binding to p300) was determined as 47 fold.

B2: H-MAP-2 (protein)
chain: MRGSPKKKRKVGGGGSHHHHHHHHGSACELAATATATATATATAACGDLAPQMLRELQETNAALQDVRELLRQQVKEITFLKNTLLEIWKAAKEAAKEAAAKIEEQAKTFLDKFNGEELLRALDQVN
Take B2: the Kd in test [1] is 0.0382 nM. In addition, the “expression of luciferase (hypoxia-inducible gene expression)” value in test [2] is “inhibitions of HIF1α”; in test [2] (listed as HIF1α-MAP-2), “decreased expression of luciferase”.

A word on the Kd: it is the equilibrium constant for the complex coming apart. Read a high Kd as lower affinity.
